Measured values published in US20210403583A1 (ELIXIRON IMMUNOTHERAPEUTICS HONG KONG, published 2021).
Positions count from the first letter of the chain named. Where two headings read alike, the source gives them in different places.

Legend:
[1] = target: T1, recombinant human CSF1R-Fc fusion protein (human, UniProt P07333 20-512); assay: ELISA, coated human CSF1R-Fc (dimer)
T1 construct: probably the same protein; also called CSF1R-Fc (dimer); not shown: Fc part
Description: (§1) Materials and methods: Recombinant human CSF1R-His (Biolegend), or CSF1R-Fc fusion protein were immobilized on 96 well microtiter plate at a concentration of 1 μg/mL in Coating Solution (SeraCare) overnight at 4° C. The wells were washed with wash solution (0.05% Tween20 in imidazole-buffered saline) and blocked with 1% BSA. Hybridoma culture supernatants or serial dilutions of antibodies were added to wells. After incubation at 37° C. for 1 h, the wells were washed with wash solution. Peroxidase-conjugated goat anti-human kappa light chain antibody (Bethyl) was applied to each well at 37° C. for 1 h incubation. After washing, the wells were developed with TMB substrate for 5-10 min at RT and then stopped with 1 N HCl. Thereafter absorbance was measured at 450 nm and 650 nm. The EC₅₀ values were calculated through GraphPad Prism7.

[2] = target: T2, recombinant human CSF1R-His (Biolegend) (human, UniProt P07333 20-512, limits assumed); assay: ELISA, coated human CSF1R-His (monomer)
T2 construct: Bought protein; also called CSF1R-His (monomer); hu-CSF1R; not shown: His tag
T2 sequence (P07333 20-512 limits assumed): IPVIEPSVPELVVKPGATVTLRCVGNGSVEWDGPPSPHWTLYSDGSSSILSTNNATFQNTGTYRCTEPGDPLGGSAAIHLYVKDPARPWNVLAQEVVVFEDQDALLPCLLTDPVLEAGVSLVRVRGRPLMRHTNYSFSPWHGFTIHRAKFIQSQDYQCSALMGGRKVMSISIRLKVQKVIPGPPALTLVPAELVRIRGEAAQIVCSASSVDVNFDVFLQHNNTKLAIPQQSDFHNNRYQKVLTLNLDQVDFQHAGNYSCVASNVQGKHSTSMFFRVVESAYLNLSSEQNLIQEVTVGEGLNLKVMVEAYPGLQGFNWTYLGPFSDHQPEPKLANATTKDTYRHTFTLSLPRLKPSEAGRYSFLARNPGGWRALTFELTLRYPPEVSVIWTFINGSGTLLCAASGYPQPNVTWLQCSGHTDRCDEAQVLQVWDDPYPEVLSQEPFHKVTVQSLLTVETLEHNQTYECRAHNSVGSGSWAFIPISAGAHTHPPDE
Description: as §1

[3] = target: T1, recombinant human CSF1R-Fc fusion …; assay: competition ELISA, coated human CSF1R-Fc, competitor biotinylated CSF1-His 2.5 ug/mL
Description: Materials and methods: Recombinant human CSF1R-Fc fusion protein was immobilized on 96 well microtiter plate at a concentration of 1 μg/mL in Coating Solution (SeraCare) overnight at 4° C. The wells were washed with wash solution and blocked with 1% BSA at RT. Serial dilutions of the antibodies were added to wells. Then 2.5 ug/mL biotinylated CSF1-His (Biolegend) was added and incubated for 1 h at 37° C. After washing, Streptavidin-HRP (Jackson ImmunoResearch) was applied to wells at RT for 1 h incubation. After washing, the wells were developed with TMB substrate for 5-10 min at RT and the stopped with 1 N HCl. Thereafter absorbance was measured at 450 nm and 650 nm. The IC₅₀ values were calculated through GraphPad Prism7.

[4] = target: T3, human CSF1R expressed on cells (293F/huCSF1R stable cells; AML5 cells; human monocytes and macrophages) (human, UniProt P07333 20-972); assay: cell-based or functional assay
[5] = target: T1, recombinant human CSF1R-Fc fusion …; assay: ELISA, coated human CSF1R-Fc (dimer); remark: listed apart in the source
Description: (§2) Materials and methods: Recombinant human CSF1R-His (Biolegend), or CSF1R-Fc fusion protein, were immobilized on 96 well microtiter plate at a concentration of 1 μg/mL in Coating Solution (SeraCare) overnight at 4° C. The wells were washed with wash solution (0.05% Tween20 in imidazole-buffered saline) and blocked with 1% BSA. Serial dilutions of the antibodies were added to wells. After incubation at 3TC for 1 h, the wells were washed with wash solution. Peroxidase-conjugated goat anti-human kappa light chain antibody (Bethyl) was applied to each well at 3TC for 1 h incubation. After washing, the wells were developed with TMB substrate for 5-10 min at RT and then stopped with 1 N HCl. Thereafter absorbance was measured at 450 nm and 650 nm. The EC50 values were calculated through GraphPad Prism7.

[6] = target: T2, recombinant human CSF1R-His (Biolegend); assay: ELISA, coated human CSF1R-His (monomer); remark: listed apart in the source
Description: as §2

[7] = target: T3, human CSF1R expressed on cells …; assay: cell-based or functional assay; remark: listed apart in the source
[8] = target: T3, human CSF1R expressed on cells …; assay: cell-based or functional assay; remark: listed apart in the source
[9] = target: T1, recombinant human CSF1R-Fc fusion …; assay: ELISA, coated human CSF1R-Fc
Description: Materials and methods: Recombinant human CSF1R-Fc, or mouse CSF1R-Fc (Sino Biological) were immobilized on 96 well microtiter plate at a concentration of 1 μg/mL in Coating Solution (SeraCare) overnight at 4° C. The wells were washed with wash solution (0.05% Tween20 in imidazole-buffered saline) and blocked with 1% BSA. Serial dilutions of the anti-CSF1R/IL-10 fusion proteins were added to wells. After incubation at 3TC for 1 h, the wells were washed with wash solution. To detect chimeric Ab/IL10 fusions, peroxidase-conjugated goat anti-human kappa light chain antibody (Bethyl) was applied to each well at 3TC for 1 h incubation. To detect AB98 or AB98/1110 fusions, peroxidase-conjugated Goat anti-mouse IgG Fab antibody (Jackson immunoresearch) was applied to each well at 3TC for 1 h incubation. After washing, the wells were developed with TMB substrate for 5-10 min at RT and then stopped with 1 N HCl. Thereafter absorbance was measured at 450 nm and 650 nm.

[10] = target: T4, cynomolgus CSF1R expressed on 293F cells (cynomolgus monkey, UniProt P07333 20-972 (human entry)); assay: flow cytometry titration on 293F cells overexpressing cynomolgus CSF1R, anti-human IgG-Alexa Fluor 647
T4 construct: also called cynoCSF1R
T4 chain: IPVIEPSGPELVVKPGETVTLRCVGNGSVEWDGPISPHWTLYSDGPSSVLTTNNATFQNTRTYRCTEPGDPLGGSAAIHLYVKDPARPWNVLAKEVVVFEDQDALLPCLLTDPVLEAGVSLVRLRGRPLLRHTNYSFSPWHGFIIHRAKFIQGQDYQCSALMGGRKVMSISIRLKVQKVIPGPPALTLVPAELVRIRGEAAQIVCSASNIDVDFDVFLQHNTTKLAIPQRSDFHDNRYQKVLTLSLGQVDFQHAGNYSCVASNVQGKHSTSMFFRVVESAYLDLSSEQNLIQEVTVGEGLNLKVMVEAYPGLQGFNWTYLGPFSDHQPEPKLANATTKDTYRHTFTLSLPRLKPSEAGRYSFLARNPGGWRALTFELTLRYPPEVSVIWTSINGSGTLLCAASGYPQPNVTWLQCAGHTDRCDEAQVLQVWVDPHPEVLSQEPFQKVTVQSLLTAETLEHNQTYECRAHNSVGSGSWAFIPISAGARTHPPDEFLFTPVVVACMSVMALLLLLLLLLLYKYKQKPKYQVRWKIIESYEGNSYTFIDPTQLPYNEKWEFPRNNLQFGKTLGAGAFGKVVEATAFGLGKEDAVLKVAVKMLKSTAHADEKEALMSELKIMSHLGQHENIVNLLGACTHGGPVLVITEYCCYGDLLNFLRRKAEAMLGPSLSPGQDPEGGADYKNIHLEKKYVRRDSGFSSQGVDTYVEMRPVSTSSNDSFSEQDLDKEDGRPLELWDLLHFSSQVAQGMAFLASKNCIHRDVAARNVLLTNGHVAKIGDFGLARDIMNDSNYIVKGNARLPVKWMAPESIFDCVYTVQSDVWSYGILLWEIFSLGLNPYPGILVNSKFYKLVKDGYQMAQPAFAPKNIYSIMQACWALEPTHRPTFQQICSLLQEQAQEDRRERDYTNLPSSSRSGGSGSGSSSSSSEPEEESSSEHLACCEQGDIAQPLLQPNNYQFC
Excerpt: Materials and methods: The gene segments encoding full-length human CSF1R or cynomolgus CSF1R were obtained using Thermo gene synthesis service and cloned in a mammalian expression vector pCDNA3.4. […] After washing with FACS buffer (2%FBS in PBS), the cells were stained with anti-human IgG-Alexa Fluor 647 and analyzed by Attune N×T Flow Cytometer (Thermo Scientific).

[11] = target: T3, human CSF1R expressed on cells …; assay: cell-based or functional assay; remark: listed apart in the source
[12] = target: T3, human CSF1R expressed on cells …; assay: cell-based or functional assay; remark: listed apart in the source
[13] = target: T2, recombinant human CSF1R-His (Biolegend); assay: BLI (Octet RED96), antibody captured on AHC biosensor, CSF1R-His in solution, 1:1 model
Description: Kinetic rate constants, ka and kd, for binding of 6D4 and 6M6 to CSF1R were measured by Bio-Layer Interferometry (BLI) (ForteBio Octet RED96). The BLI assay was performed using AHC (Anti-hIgG Fc Capture) biosensors (ForteBio) to capture each anti-CSF1R antibody (2 μg/mL) to acquire a 0.5 nm shift and then the biosensors were dipped into varying concentrations (i.e. 0, 0.549, 1.65, 4.94, 14.8, 44.4, 133.3 and 400 nM) of recombinant CSF1R-His protein in running buffer containing PBS-Tween 20 (0.1%), BSA (0.1%). Rate constants were calculated by curve fitting analyses (1:1 Langmuir model) of binding response with a 5-minute association and 15-minute dissociation interaction time.

T1 sequence (P07333 20-512 limits assumed): as the sequence (P07333 20-512 limits assumed) above

B1: hy6M6 (antibody, V domains shown)
VH: DVQLQQSGTVLARPGASVKMSCKASGYTFTSYWIHWVKQRPGQGLEWIGAIYPGNRDTNYNQKFKGKAKLTTVTSASTAYMELSSLTNEDSAVYYCTGAFAGYYDWYFDVWGAGTTVTVSS
VL: DIVLTQSPASLAVSLGQRATISCKASQGVDYAGDSYMNWYQQKPGQPPKLLIYVASDLDSGIPARFSGSGSGTNFTLNIHPVEEEDAATYYCQQSYEDPRTFGGGTTLEIQ
notes: Mouse hybridoma antibody; also called anti-CSF1R antibody purified from hybridoma supernatant hy6M6
For B1, which EC50 [1] is on record?
The EC50 was 65.3 pM.

And the EC50 [2]?
The EC50 was 112 pM.

What about the IC50 [3] of the same binder?
Its IC50 is 1040 pM.

B2: humanized anti-CSF1R antibody 6M6.hu12 (antibody, human IgG1, kappa)
heavy: not shown
light: DIVLTQSPDSLAVSLGERATINCKASQGVDYAGDSYMNWYQQKPGQPPKLLIYVASDLDSGIPDRFSGSGSGTDFTLTISSLQAEDVATYYCQQSYEDPRTFGGGTTLEIKRTVAAPSVFIFPPSDEQLKSGTASVVCLLNNFYPREAKVQWKVDNALQSGNSQESVTEQDSKDSTYSLSSTLTLSKADYEKHKVYACEVTHQGLSSPVTKSFNRGEC
notes: Humanized version of 6M6; also called 6M6.hul2
For B2, which “IC50 (M), CSF1-dependent AML5 cell proliferation” value [4] is on record?
The value was 5.46e-10 M.

What about the EC50 [5] of the same binder?
Its EC50 is 61.3 pM.

And the EC50 [6]?
Its EC50 is 103 pM.

B3: humanized anti-CSF1R/IL10 fusion protein 6M6.hu12/IL10 (antibody, human IgG1, kappa)
heavy: not shown
light: B2 light
notes: Antibody-cytokine fusion: human IL10 fused by a linker to the C-terminus of the heavy chain
B3 was tested. Which “IC50 (M), inhibition of AML5 cell proliferation (CSF1-dependent)” value [7] did it give?
The value was 1.61e-09 M.

What about the “IC50 (M), inhibition of macrophage survival (CSF1-dependent)” value [8] of the same binder?
Its value is 1.49e-10 M.

What about the EC50 [9] of the same binder?
The EC50 was 252 pM.

Does B3 bind [10]?
Result: binds

B4: humanized anti-CSF1R antibody 6M6.hu41 (antibody, human IgG1, kappa)
heavy: not shown
light: B2 light with I62V
notes: Humanized version of 6M6
Which results are given for B4?
IC50 (M), CSF1-dependent AML5 cell proliferation [4]: 4.3e-10 M; EC50 [5]: 65 pM; EC50 [6]: 107 pM

B5: humanized anti-CSF1R/IL10 fusion protein 6M6.hu41/IL10 (antibody, human IgG1, kappa)
heavy: not shown
light: B2 light with I62V
notes: Antibody-cytokine fusion: human IL10 fused by a linker to the C-terminus of the heavy chain; also called 6M6.hu41/1L10
For B5, which “IC50 (M), inhibition of AML5 cell proliferation (CSF1-dependent)” value [7] is on record?
The value was 8.93e-10 M.

What about the “IC50 (M), inhibition of macrophage survival (CSF1-dependent)” value [8] of the same binder?
Its value is 1.84e-10 M.

What about the EC50 [9] of the same binder?
Its EC50 is 205 pM.

Does B5 bind [10]?
Result: binds

B6: hy6D4 (antibody, V domains shown)
VH: EIQLQQSGAELVKPRASVKISCEASGYSFTGYNMNWVKQSPGKSLEWIGDINPYYGATTYNQKFKGKATLTVDKSSSTAYMQLNSLTSEDSAVYYCARRGDYGDYEGWYFDVWGAGTTVTVSS
VL: DIQMNQSPSSLSASLGDTITITCHASQNINVWLSWYQQKPGNIPKLLIYKASNLHTGVPSRFSGSGSGTGFTLTISSLQPEDIATYYCQQGQSYPYTFGGGTKLEIK
notes: Mouse hybridoma antibody; also called anti-CSF1R antibody purified from hybridoma supernatant hy6D4
What does the source list for B6?
EC50 [1]: 381 pM; EC50 [2]: 531 pM; IC50 [3]: 1760 pM

B7: chimeric anti-CSF1R antibody 6D4 (antibody, human IgG1, kappa)
heavy: not shown
light: DIQMNQSPSSLSASLGDTITITCHASQNINVWLSWYQQKPGNIPKLLIYKASNLHTGVPSRFSGSGSGTGFTLTISSLQPEDIATYYCQQGQSYPYTFGGGTKLEIKRTVAAPSVFIFPPSDEQLKSGTASVVCLLNNFYPREAKVQWKVDNALQSGNSQESVTEQDSKDSTYSLSSTLTLSKADYEKHKVYACEVTHQGLSSPVTKSFNRGEC
For B7, which “IC50 (M), CSF1-dependent AML5 cell proliferation” value [11] is on record?
The value was 4.62e-10 M.

And the “IC50 (M), IL-34-dependent AML5 cell proliferation” value [11]?
The value was 3.49e-10 M.

And the “IC50 (M), CSF1-dependent survival of CD14+ monocytes” value [12]?
Its value is 5.58e-10 M.

What about the “IC50 (M), CSF1-dependent survival of macrophages” value [12] of the same binder?
The value was 1.38e-10 M.

What about the “IC50 (M), CSF1-dependent AML5 cell proliferation” value [4] of the same binder?
Its value is 4.62e-10 M.

And the EC50 [5]?
Its EC50 is 381 pM.

And the EC50 [6]?
The EC50 was 531 pM.

What about the Kd [13] of the same binder?
The Kd was 3420 pM.

What about the koff [13] of the same binder?
Its koff is 0.000946 s⁻¹.

And the kon [13]?
Its kon is 277000 M⁻¹ s⁻¹.
